{
  "source": "patent US20140065128A1",
  "key": {"[1]": {"biological_target": "Human myeloma IgE (human) (UniProt P01854)", "assay": "SPR (BIAcore 2000, 25 C): GST-EndoS (E235Q) amine-coupled to a CM5 chip, human myeloma IgE injected at 10-1.25 ug/ml; 1:1 Langmuir fit, KD from mean rate constants"}, "[2]": {"biological_target": "Human IgE in whole blood of healthy volunteers (on basophils)", "assay": "cell-based or functional assay"}},
  "data": [
    {"substance": "GST-EndoS (E235Q), enzymatically inactive form of EndoS from Streptococcus pyogenes (from UniProt Q99Y92 37-995) (enzyme)", "values": [
      {"measurement": "Kd", "setting": "[1]", "result": 0.133, "unit": "µM"}
    ]},
    {"substance": "GST-EndoS (enzymatically active) (from UniProt Q99Y92 37-995) (enzyme)", "values": [
      {"measurement": "CD203c+ cells among CD123+, HLA-DR- basophils after chicken anti-IgE stimulation of whole blood (FACS); untreated blood 83%", "setting": "[2]", "result": 15, "unit": "%"}
    ]}
  ]
}
